Measurements as given in US20250382344A1, “Soluble GLP1/GIP/NPY2 Receptor Triple Agonists” (Boehringer Ingelheim International GmH, priority 2024, published 2025).
Where a chain is given by its changes, count along the chain named. *1 amine or outer side, *2 acyl side, *3 side chain or, on linkers, in order; H or OH if unused. Where no end group is shown, it is not given here. Side-chain parts run from the residue outwards. [ ]: non-standard residue; d: D form. The star is where a group is joined. C20 diacid = O=C(O)CCCCCCCCCCCCCCCCCCC(=O)*; C18 diacid = O=C(O)CCCCCCCCCCCCCCCCC(=O)*; γGlu = O=C(O)[C@H](CCC(=O)[*:2])N[*:1]; εLys = N[C@@H](CCCCN[*:1])C(=O)[*:2]; dtOrn = not defined here; TRX = not defined here; AEEA = NCCOCCOCC(=O)O; Aib = CC(C)(N)C(=O)O

B1: Compound 167 (peptide)
peptide: YXEGTFTSDYSIXLEKQAQXAFVRHLINKXTRQRY
modifications: Aib at 2, 13, 20, 30; Lys29 epsilon-amino: C20DA-gGlu-gGlu-gGlu-gGlu-gGlu-AHX; C-terminal amide
B2: Compound 92 (peptide)
peptide: B1 peptide
modifications: Aib at 2, 13, 20, 30; Lys29 epsilon-amino: C18DA-gGlu-gGlu-gGlu-gGlu-gGlu-gGlu-eLys; C-terminal amide
B3: Compound 151 (peptide)
peptide: B1 peptide with X20Y
modifications: Aib at 2, 13, 30; Lys29 epsilon-amino: C18DA-gGlu-gGlu-gGlu-gGlu-gGlu-gGlu-eLys; C-terminal amide
B4: Compound 142 (peptide)
peptide: B1 peptide with S11A
modifications: Aib at 2, 13, 20, 30; Lys29 epsilon-amino: C18DA-gGlu-gGlu-gGlu-gGlu-gGlu-gGlu-eLys; C-terminal amide
B5: Compound 159 (peptide)
peptide: B1 peptide with X30A
modifications: Aib at 2, 13, 20; Lys29 epsilon-amino: C18DA-gGlu-gGlu-gGlu-gGlu-gGlu-gGlu-eLys; C-terminal amide
B6: Compound 139 (peptide)
peptide: B1 peptide with L26A
modifications: Aib at 2, 13, 20, 30; Lys29 epsilon-amino: C18DA-gGlu-gGlu-gGlu-gGlu-gGlu-gGlu-eLys; C-terminal amide
B7: Compound 153 (peptide)
peptide: B1 peptide with E15D, H25Y
modifications: Aib at 2, 13, 20, 30; Lys29 epsilon-amino: C18DA-gGlu-gGlu-gGlu-gGlu-gGlu-gGlu-eLys; C-terminal amide
B8: Compound 106 (peptide)
peptide: B1 peptide
modifications: Aib at 2, 13, 20, 30; Lys29 epsilon-amino: C20DA-gGlu-gGlu-gGlu-gGlu-gGlu-AHX-AHX; C-terminal amide
B9: Compound 140 (peptide)
peptide: B1 peptide
modifications: Aib at 2, 13, 20, 30; Lys29 epsilon-amino: C18DA-gGlu-gGlu-gGlu-gGlu-gGlu-OEG; C-terminal amide
B10: Compound 150 (peptide)
peptide: B1 peptide
modifications: Aib at 2, 20, 30; aMeL at 13; Lys29 epsilon-amino: C20DA-gGlu-gGlu-gGlu-gGlu-gGlu-gGlu-eLys; C-terminal amide
B11: Compound 158 (peptide)
peptide: B1 peptide with X30L
modifications: Aib at 2, 13, 20; Lys29 epsilon-amino: C18DA-gGlu-gGlu-gGlu-gGlu-gGlu; C-terminal amide
B12: Compound 127 (peptide)
peptide: B1 peptide with X30L
modifications: Aib at 2, 13, 20; Lys29 epsilon-amino: C18DA-gGlu-gGlu-gGlu-gGlu-gGlu-gGlu-eLys; C-terminal amide
B13: Compound 122 (peptide)
peptide: B1 peptide with X13L
modifications: Aib at 2, 20, 30; Lys29 epsilon-amino: C18DA-gGlu-gGlu-gGlu-gGlu-gGlu; C-terminal amide

The binders below were run against human GLP-1 receptor (human, UniProt P43220 24-463) (assay: cell-based or functional assay).

| Binder | EC50, CreLuc reporter, 100% hP | EC50, CreLuc reporter, 0.5% hP |
| --- | --- | --- |
| Y[Aib]EGTFTSDYSI[Aib]LEKQAQ[Aib]AFVRHLINK([dtOrn-γGlu-γGlu-γGlu-γGlu-γGlu-γGlu-C18 diacid])[Aib]TRQRY-NH2 (reading uncertain) [Compound 87] | 5.6 nM |  |
| Y[Aib]EGTFTSDYSI[Aib]LEKQAQ[Aib]AFVRHLINK([γGlu-γGlu-γGlu-γGlu-γGlu-γGlu-C18 diacid])[Aib]TRQRY-NH2 [Compound 134] | 4 nM | 1 nM |
| B1 | 18.7 nM | 1 nM |
| B2 | 2 nM |  |
| Y[Aib]EGTFTSDYSI[Aib]LEKQAE[Aib]AFVRHLINK([εLys-AEEA-γGlu-γGlu-γGlu-γGlu-γGlu-C20 diacid])[Aib]TRQRY-NH2 [Compound 161] | 5 nM | 2 nM |

What follows are binders tested against T1, human GIP receptor (human, UniProt P48546 22-466) (assay: cell-based or functional assay).
T1 sequence (looked up): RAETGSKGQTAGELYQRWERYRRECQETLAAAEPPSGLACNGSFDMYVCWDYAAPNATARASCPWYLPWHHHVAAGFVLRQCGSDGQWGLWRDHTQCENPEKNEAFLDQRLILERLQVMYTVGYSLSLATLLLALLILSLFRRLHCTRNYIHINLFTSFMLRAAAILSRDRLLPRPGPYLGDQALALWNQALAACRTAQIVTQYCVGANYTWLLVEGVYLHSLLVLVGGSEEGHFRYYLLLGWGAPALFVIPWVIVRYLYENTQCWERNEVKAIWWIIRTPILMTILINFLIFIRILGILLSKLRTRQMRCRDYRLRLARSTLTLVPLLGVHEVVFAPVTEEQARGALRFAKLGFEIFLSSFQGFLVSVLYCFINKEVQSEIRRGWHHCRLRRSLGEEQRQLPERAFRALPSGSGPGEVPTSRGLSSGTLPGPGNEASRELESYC

| Binder | EC50, CreLuc reporter, 100% hP | EC50, CreLuc reporter, 0.5% hP |
| --- | --- | --- |
| Y[Aib]EGTFTSDYSI[Aib]LEKQAQ[Aib]AFVRHLINK([εLys-γGlu-γGlu-γGlu-γGlu-γGlu-γGlu-γGlu-C18 diacid])[Aib]TRQRY-NH2 [Compound 121] | 2.8 nM |  |
| Y[Aib]EGTFTSDLSI[Aib]LEKQAQ[Aib]AFVRHLINK([εLys-γGlu-γGlu-γGlu-γGlu-γGlu-γGlu-γGlu-C20 diacid])[Aib]TRQRY-NH2 [Compound 135] | 5.8 nM | 0.5 nM |
| Y[Aib]EGTFTSDYSI[Aib]LDEQAQ[Aib]AFVRHLINK([εLys-εLys-γGlu-γGlu-γGlu-γGlu-γGlu-C20 diacid])[Aib]TRQRY-NH2 [Compound 155] | 6.1 nM | 0.7 nM |
| Y[Aib]EGTFTSDYSI[Aib]LEKQAE[Aib]AFVRHLINK([εLys-γGlu-γGlu-AEEA-γGlu-γGlu-γGlu-C20 diacid])[Aib]TRQRY-NH2 [Compound 162] |  | 0.7 nM |
| Y[Aib]EGTFTSDYSI[Aib]LEKQAQ[Aib]EFVRHLINK([εLys-γGlu-γGlu-γGlu-γGlu-C18 diacid])[Aib]TRQRY-NH2 [Compound 163] | 5.9 nM | 0.2 nM |
| Y[Aib]EGTFTSDYSI[Aib]LEKQAQ[Aib]AFVRHLINK([γGlu-γGlu-γGlu-γGlu-γGlu-γGlu-TRX-C20 diacid])[Aib]TRQRY-NH2 (reading uncertain) [Compound 133] | 3.4 nM |  |
| Y[Aib]EGTFTSDYSI[Aib]LEKQAQ[Aib]AFVRHLINK([AEEA-γGlu-γGlu-γGlu-γGlu-γGlu-γGlu-C20 diacid])[Aib]TRQRY-NH2 [Compound 99] | 9 nM | 0.5 nM |
| B3 | 5.6 nM | 0.5 nM |
| B4 | 3.4 nM | 0.3 nM |
| B5 |  | 0.2 nM |
| B6 | 22.3 nM | 12.2 nM |
| B7 |  | 0.1 nM |
| B8 | 4.7 nM |  |
| B9 | 8 nM |  |
| B10 | 2.8 nM |  |
| B11 | 14.4 nM | 0.5 nM |
| B12 | 16.7 nM |  |
| B13 | 4.5 nM | 0.1 nM |
| Y[Aib]EGTFTSDYSI[Aib]LEKQAQ[Aib]AFVRHLINK([γGlu-γGlu-AEEA-γGlu-γGlu-γGlu-γGlu-C20 diacid])[Aib]TRQRY-NH2 [Compound 136] | 9.1 nM | 0.5 nM |

These binders were tested against T2, human neuropeptide Y2 receptor (human, UniProt P49146 1-381) (assay: cell-based or functional assay).
T2 sequence (looked up): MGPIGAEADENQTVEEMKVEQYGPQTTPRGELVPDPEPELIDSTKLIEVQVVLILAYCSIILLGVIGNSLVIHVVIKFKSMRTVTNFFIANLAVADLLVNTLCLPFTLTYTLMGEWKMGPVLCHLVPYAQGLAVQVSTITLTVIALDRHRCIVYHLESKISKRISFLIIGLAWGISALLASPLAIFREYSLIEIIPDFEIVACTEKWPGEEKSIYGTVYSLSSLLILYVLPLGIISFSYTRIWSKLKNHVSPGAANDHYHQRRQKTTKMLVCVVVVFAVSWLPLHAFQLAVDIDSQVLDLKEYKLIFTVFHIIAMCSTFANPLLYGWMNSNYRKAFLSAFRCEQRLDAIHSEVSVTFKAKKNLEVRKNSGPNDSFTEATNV

| Binder | EC50, CreLuc reporter, 0.5% hP | EC50, CreLuc reporter, 100% hP |
| --- | --- | --- |
| Y[Aib]EGTFTSDYSI[Aib]LEKQAQ[Aib]AFVRHLINK([dtOrn-γGlu-γGlu-γGlu-γGlu-γGlu-γGlu-C18 diacid])[Aib]TRQRY-NH2 (reading uncertain) [Compound 87] | 16.5 nM |  |
| Y[Aib]EGTFTSDYSI[Aib]LEKQAQ[Aib]AFVRHLINK([εLys-γGlu-γGlu-γGlu-γGlu-γGlu-γGlu-γGlu-C18 diacid])[Aib]TRQRY-NH2 [Compound 121] | 13.8 nM |  |
| Y[Aib]EGTFTSDLSI[Aib]LEKQAQ[Aib]AFVRHLINK([εLys-γGlu-γGlu-γGlu-γGlu-γGlu-γGlu-γGlu-C20 diacid])[Aib]TRQRY-NH2 [Compound 135] | 18.8 nM | 47.8 nM |
| Y[Aib]EGTFTSDYSI[Aib]LDEQAQ[Aib]AFVRHLINK([εLys-εLys-γGlu-γGlu-γGlu-γGlu-γGlu-C20 diacid])[Aib]TRQRY-NH2 [Compound 155] | 6 nM | 63.1 nM |
| Y[Aib]EGTFTSDYSI[Aib]LEKQAE[Aib]AFVRHLINK([εLys-γGlu-γGlu-AEEA-γGlu-γGlu-γGlu-C20 diacid])[Aib]TRQRY-NH2 [Compound 162] |  | 43.8 nM |
| Y[Aib]EGTFTSDYSI[Aib]LEKQAQ[Aib]EFVRHLINK([εLys-γGlu-γGlu-γGlu-γGlu-C18 diacid])[Aib]TRQRY-NH2 [Compound 163] |  | 218 nM |
| Y[Aib]EGTFTSDYSI[Aib]LEKQAQ[Aib]AFVRHLINK([γGlu-γGlu-γGlu-γGlu-γGlu-γGlu-TRX-C20 diacid])[Aib]TRQRY-NH2 (reading uncertain) [Compound 133] | 44.9 nM | 246 nM |
| Y[Aib]EGTFTSDYSI[Aib]LEKQAQ[Aib]AFVRHLINK([AEEA-γGlu-γGlu-γGlu-γGlu-γGlu-γGlu-C20 diacid])[Aib]TRQRY-NH2 [Compound 99] | 16.7 nM | 125 nM |
| B1 | 13.3 nM | 267 nM |
| B3 | 32.6 nM | 89.8 nM |
| B4 | 17.4 nM | 31.8 nM |
| B5 | 11.5 nM | 57.5 nM |
| B6 |  | 22.7 nM |
| B7 | 40 nM | 65.5 nM |
| B8 | 7.1 nM | 41.7 nM |
| B2 |  | 22.6 nM |
| B9 | 22 nM | 141 nM |
| B10 |  | 90.7 nM |
| B11 | 26 nM | 149 nM |
| B12 | 10.3 nM | 76.9 nM |
| B13 | 60.8 nM | 284 nM |
| Y[Aib]EGTFTSDYSI[Aib]LEKQAQ[Aib]AFVRHLINK([γGlu-γGlu-AEEA-γGlu-γGlu-γGlu-γGlu-C20 diacid])[Aib]TRQRY-NH2 [Compound 136] | 38.5 nM | 123 nM |
